Where only a bound is given, the exact number is not on record here.

From PMC3424247, “The Crystal Structures of the Tryparedoxin-Tryparedoxin Peroxidase Couple Unveil the Structural Determinants of Leishmania Detoxification Pathway” (PLoS Neglected Tropical Diseases, 2012) come the findings set out here.

Series [1] deals with cytosolic tryparedoxin from Leishmania major (Leishmania major) (UniProt E9ADX4). In words: SPR; BIACORE X, CM5 chip; LmTXN immobilised by amine coupling (about 1000 RU), LmTXNPx flowed over (40 nM-4.0 µM); 298 K; HBS-P buffer (10 mM HEPES pH 7.4, 0.15 M NaCl, 0.005% P-20); 30 µL/min; Scatchard analysis of Req. In general terms: In SPR one partner is held on a chip, and binding of the other changes the refractive index at the surface.

The target of series [2] is tryparedoxin-dependent peroxidase from Leishmania major (Leishmania major). In words: native gel or EMSA; Novex 4-12% Tris-Glycine non-denaturing gels; LmTXNPx 0.5 mg/mL with H2O2 (300, 30, 3 mM) or DTT (50, 5, 1 mM). A general note: In EMSA bound probe runs differently from free probe, usually more slowly.
In series [3] the target is cytosolic tryparedoxin from Leishmania major (Leishmania major) (UniProt E9ADX4). In words: SPR; as a6 but HBS-P buffer + 1 mM dithiotreitol (reducing conditions); LmTXNPx 40 nM-5 µM; for the dissociation rate DTT was added after 2080 s to the complex formed in HBS-P.
Series [4] concerns the target tryparedoxin-dependent peroxidase from Leishmania major (Leishmania major). In words: crystal structure; LmTXNPx about 12 mg/mL with 50 mM DTT, 22-26% PEG3350, 100 mM Bis-tris propane pH 8.0, 0.2 M KSCN, 293 K; five molecules per asymmetric unit, decamer from two adjacent asymmetric units; 3.0 Å.
Series [5] has as its target cytosolic tryparedoxin from Leishmania major (Leishmania major) (UniProt E9ADX4). In words: SPR; as a6 but HBS-P buffer + 30 mM H2O2 (oxidizing conditions); LmTXNPx 80 nM-10 µM.
Series [6] deals with the molecule itself. The series is described as follows: crystal structure; LmTXN about 8 mg/mL, hanging drop, 293 K, 20-24% PEG 3350, 100 mM Tris-HCl pH 8.5, 50 mM MgCl2; one molecule per asymmetric unit, dimer by crystallographic two-fold; 1.8 Å.

Regarding “tryparedoxin-dependent peroxidase from Leishmania major (enzyme)”, the Kd (as a rule, the free concentration of one partner at which half of the binding sites on the other are occupied at equilibrium, for simple one-to-one binding) was 1.1 µM in series [1], over 20 µM in series [3] and over 20 µM in series [5]. In addition, the koff (as a rule, a measure of how fast the partners let go of each other) in series [1] is 5e-05 s⁻¹; in series [3], 0.009 s⁻¹; in series [5] it was over 0.1 s⁻¹. Also, the stoichiometry N in series [2] and in series [4] was 10 in each case.

B1: cytosolic tryparedoxin from Leishmania major (enzyme, UniProt E9ADX4 1-145, looked up)
chain: MSGVAKHLGEALKLRKQADTADMDSLSGKTVFFYFSASWCPPCRGFTPQLVEFYEKHHDSKNFEIILASWDEEEDDFNAYYAKMPWLSIPFANRNIVEALTKKYSVESIPTLIGLNADTGDTVTTRARHALTQDPMGEQFPWRDE
notes: cytosolic tryparedoxin (TXN1) of Leishmania major, gene amplified from L. major DNA with primers that hold the start (CATATG) and the stop codon; residues 2-145 seen in the crystal; Cloned between NdeI and HindIII of pET28b; the tag is probably N-terminal and thrombin probably leaves a few vector residues (surmised); Monomer-dimer equilibrium in solution, mostly monomer; also called LmTXN; TXN; …
Take B1: in series [6], the stoichiometry N (as a rule, a count of units in the complex or per binding partner) was determined as 2.
